{"source": "patent US20240327535A1", "about": "(EISAI R AND D MANAGEMENT, published 2024)", "binders": {"B1": {"name": "AB200_Fab (D99D) (Fab, V domains shown)", "VH": "QVQLVQSGAEVKKPGSSVKVSCKASGGTFSNYWMHWVRQAPGQGLEWMGATYRGHSDTYYNQKFKGRVTITADKSTSTAYMELSSLRSEDTAVYYCARGAIYDGYDVLDNWGQGTLVTVSS", "VL": "DIQMTQSPSSLSASVGDRVTITCSASQDISNYLNWYQQKPGKAPKLLIYYTSNLHSGVPSRFSGSGSGTDFTLTISSLQPEDFATYYCQQYRKLPWTFGQGTKLEIKR"}, "B2": {"name": "AB200_Fab + D99H (Fab, V domains shown)", "VH": "B1 VH with D103H", "VL": "B1 VL", "notes": "also called AB200_D99H; D99H variant"}, "B3": {"name": "AB200_Fab + D99S (Fab, name in Kabat numbering, V domains shown)", "VH": "B1 VH with D103S", "VL": "B1 VL"}, "B4": {"name": "AB200_Fab + D99T (Fab, name in Kabat numbering, V domains shown)", "VH": "B1 VH with D103T", "VL": "B1 VL"}, "B5": {"name": "AB200_Fab + D99E (Fab, name in Kabat numbering, V domains shown)", "VH": "B1 VH with D103E", "VL": "B1 VL"}, "B6": {"name": "AB200_Fab + D99Q (Fab, name in Kabat numbering, V domains shown)", "VH": "B1 VH with D103Q", "VL": "B1 VL"}, "B7": {"name": "AB200_Fab + D99N (Fab, name in Kabat numbering, V domains shown)", "VH": "B1 VH with D103N", "VL": "B1 VL", "notes": "also called D99N variant"}, "B8": {"name": "AB200-(2Vk30)_R2-VH-v4 (Fab, V domains shown)", "VH": "B1 VH with S30T, M34I, G54S, Y59N, N61A, G66S, D103H, L108I, D109E", "VL": "B1 VL with S24R, D28S, N31S, Y50A, H55Q, S56I, K93R, L94I"}, "B9": {"name": "AB200-(2Vk30)_R2-VH-v16 (Fab, V domains shown)", "VH": "B1 VH with T28S, M34I, A50G, G54S, Y59N, G66S, Y102F, D103H, L108I", "VL": "B1 VL with S24R, D28S, N31S, Y50A, H55Q, S56I, K93R, L94I"}, "B10": {"name": "AB200-(2Vk30)_R2-VH-v45 (Fab, V domains shown)", "VH": "B1 VH with F29Y, M34I, G54I, D57T, Y59N, G66S, Y102F, D103H, L108I", "VL": "B1 VL with S24R, D28S, N31S, Y50A, H55Q, S56I, K93R, L94I"}, "B11": {"name": "AB200-(2Vk30)_R2-VH-v40 (Fab, V domains shown)", "VH": "B1 VH with S30T, M34I, G54I, D57T, N61A, G66S, D103H, Y105F, L108I", "VL": "B1 VL with S24R, D28S, N31S, Y50A, H55Q, S56I, K93R, L94I"}, "B12": {"name": "AB200-(2Vk30)_R2-VH-v13 (Fab, V domains shown)", "VH": "B1 VH with T28S, M34I, A50G, G54S, N61A, G66S, D103H, L108I, D109E", "VL": "B1 VL with S24R, D28S, N31S, Y50A, H55Q, S56I, K93R, L94I"}, "B13": {"name": "AB200-(2Vk30)_R2-VH-v10 (Fab, V domains shown)", "VH": "B1 VH with F29Y, M34I, G54S, Y59N, F64Y, G66S, D103H, L108I, D109E", "VL": "B1 VL with S24R, D28S, N31S, Y50A, H55Q, S56I, K93R, L94I"}, "B14": {"name": "AB200-(2Vk30)_R2-VH-v31 (Fab, V domains shown)", "VH": "B1 VH with M34I, G54S, H55Q, Y59N, G66S, I101V, D103H, L108I", "VL": "B1 VL with S24R, D28S, N31S, Y50A, H55Q, S56I, K93R, L94I"}, "B15": {"name": "AB200-(2Vk30)_R2-VH-v39 (Fab, V domains shown)", "VH": "B1 VH with S30T, M34I, G54I, N61A, Q62E, G66S, Y102F, D103H, L108I", "VL": "B1 VL with S24R, D28S, N31S, Y50A, H55Q, S56I, K93R, L94I"}, "B16": {"name": "AB200-(2Vk30)_R2-VH-v19 (Fab, V domains shown)", "VH": "B1 VH with M34I, A50G, G54S, D57T, G66S, D103H, Y105F, L108I", "VL": "B1 VL with S24R, D28S, N31S, Y50A, H55Q, S56I, K93R, L94I"}, "B17": {"name": "AB200-(2Vk30)_R2-VH-v23 (Fab, V domains shown)", "VH": "B1 VH with M34I, A50G, G54S, F64Y, G66S, Y102F, D103H, L108I", "VL": "B1 VL with S24R, D28S, N31S, Y50A, H55Q, S56I, K93R, L94I"}, "B18": {"name": "AB200-(2Vk30)_R2-VH-v43 (Fab, V domains shown)", "VH": "B1 VH with S30T, M34I, A50G, G54I, N61A, G66S, D103H, Y105F, L108I", "VL": "B1 VL with S24R, D28S, N31S, Y50A, H55Q, S56I, K93R, L94I"}}, "note": "Numbering of substitutions follows the chain as printed. Names and notes keep the numbering of the source.", "data": [{"molecular_target": "T1, extracellular domain of rhesus monkey BCMA (rhesus monkey, UniProt F7FFA0 1-53)", "T1 construct": "extracellular domain; also called RhBCMA", "T1 sequence (F7FFA0 entry or part of it)": "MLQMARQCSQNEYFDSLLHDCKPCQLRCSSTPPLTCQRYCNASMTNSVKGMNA", "test": "Octet BLI; Fab 200 nM", "units": {"Kd": "nM", "koff": "s⁻¹", "kon": "M⁻¹ s⁻¹"}, "values": [{"binder": "B1", "Kd": 5.89, "koff": 0.00118, "kon": 200000}, {"binder": "B2", "Kd": 5.7, "koff": 0.00105, "kon": 180000}, {"binder": "B3", "Kd": 9.75, "koff": 0.00114, "kon": 120000}, {"binder": "B4", "Kd": 11.5, "koff": 0.00099, "kon": 90000}, {"binder": "B5", "Kd": 13.6, "koff": 0.00219, "kon": 160000}, {"binder": "B6", "Kd": 7.63, "koff": 0.0014, "kon": 180000}, {"binder": "B7", "Kd": 3.32, "koff": 0.00066, "kon": 200000}]}, {"molecular_target": "T2, extracellular domain of human BCMA (human, UniProt Q02223 1-54)", "T2 construct": "amine-linked to Octet AR2G tips; also called hsBCMA; BCMA (human)", "T2 sequence": "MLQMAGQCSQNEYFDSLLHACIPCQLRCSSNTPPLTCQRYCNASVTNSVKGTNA", "test": "Octet BLI; Fab 200 nM", "units": {"Kd": "nM"}, "values": [{"binder": "B8", "Kd": 46.4}, {"binder": "B9", "Kd": 74.6}, {"binder": "B10", "Kd": 720}, {"binder": "B11", "Kd": 15.5}, {"binder": "B12", "Kd": 44.7}, {"binder": "B13", "Kd": 85.8}, {"binder": "B14", "Kd": 12.9}, {"binder": "B15", "Kd": 3}, {"binder": "B16", "Kd": 14.6}, {"binder": "B17", "Kd": 6.89}, {"binder": "B18", "Kd": 6.82}]}, {"molecular_target": "T1, extracellular domain of rhesus monkey …", "test": "Octet BLI; Fab 200 nM", "remark": "another data set of the same source", "units": {"Kd": "nM"}, "values": [{"binder": "B8", "Kd": 125}, {"binder": "B9", "Kd": 178}, {"binder": "B10", "Kd": 3080}, {"binder": "B11", "Kd": 32.5}, {"binder": "B12", "Kd": 144}, {"binder": "B13", "Kd": 330}, {"binder": "B14", "Kd": 38.4}, {"binder": "B15", "Kd": 15.4}, {"binder": "B16", "Kd": 25.4}, {"binder": "B17", "Kd": 25.9}, {"binder": "B18", "Kd": 25.8}]}, {"molecular_target": "T2, extracellular domain of human BCMA", "test": "Octet BLI; Fab 200 nM", "remark": "another data set of the same source", "units": {"Kd": "nM", "koff": "s⁻¹", "kon": "M⁻¹ s⁻¹"}, "values": [{"binder": "B1", "Kd": 3.45, "koff": 0.00058, "kon": 170000}, {"binder": "B2", "Kd": 2.08, "koff": 0.00037, "kon": 180000}, {"binder": "B3", "Kd": 3.86, "koff": 0.00044, "kon": 110000}, {"binder": "B4", "Kd": 3.72, "koff": 0.0003, "kon": 80000}, {"binder": "B5", "Kd": 5.92, "koff": 0.00091, "kon": 150000}, {"binder": "B6", "Kd": 3.06, "koff": 0.00053, "kon": 170000}, {"binder": "B7", "Kd": 1.23, "koff": 0.00023, "kon": 190000}]}]}
